Here are results for two molecules from patent publication US20110144312A1 (Kyowa Kirin, published 2011).

Experiment [1] concerns the target T1, human IL-10Rα extracellular domain fused to the Fc portion of human IgG1 (human).
T1 construct: also called hIL-10Rα:hFc; human IL-10Rα:hFc
The experiment in a line: ELISA, coated human IL-10Rα:hFc. The text has this:
FIGS. 2A-2B show relative binding affinity of anti-human IL-10R antibodies for human IL-10Rα. A) Titration of anti-IL-10Rα antibodies binding to coated human IL-10Rα:hFc. Binding was detected with anti-human kappa-HRP, anti-mouse IgG-HRP, or anti-rat IgG-HRP. […] RPMI-8226 cells were labeled with anti-human IL-10Rα antibodies at various concentrations and detected with anti-human IgG-PE. The commercial rat anti-human IL-10Rα antibody 3F9 was detected with anti-rat IgG-PE. The geometric mean fluorescence intensity (geo mean) data are shown.
IL-10Rα Specific Antibody Detection ELISA: Antibody titers, specificity, and production by hybridomas were determined by ELISA. In brief, 96 well flat bottom Maxisorb plates were coated with 50 μl of hIL-10Rα (R&D Systems, Minneapolis, Minn.) at 1 μg/ml in carbonate buffer (pH 9.4) overnight at 4° C. or at 37° C. for 1 hour. After washing three times with PBS/0.05% Tween 20, plates were blocked with Superblock blocking buffer in TBS (Pierce) at room temperature for 30 minutes. […] The reaction was stopped with H₂SO₄ (LabChem) and the optical density was measured at 450 nm by a microplate reader. […] In this assay, binding of specific human IgG were detected with a peroxidase labeled sheep anti-human kappa antibody (The Binding Site, Birmingham, UK).
On the technique in general: In an ELISA, binding on a coated surface is turned into a signal by an enzyme label.

For experiment [2], the target named is T2, cynomolgus macaque IL-10Rα on PBMC (cynomolgus macaque, UniProt Q13651 22-578 (human entry)).
T2 construct: Full-length entry cloned from cynomolgus T cells; endogenous on primary PBMC in the assays; also called IL-10Rα on the surface of cynomolgus lymphocytes and monocytes
T2 chain: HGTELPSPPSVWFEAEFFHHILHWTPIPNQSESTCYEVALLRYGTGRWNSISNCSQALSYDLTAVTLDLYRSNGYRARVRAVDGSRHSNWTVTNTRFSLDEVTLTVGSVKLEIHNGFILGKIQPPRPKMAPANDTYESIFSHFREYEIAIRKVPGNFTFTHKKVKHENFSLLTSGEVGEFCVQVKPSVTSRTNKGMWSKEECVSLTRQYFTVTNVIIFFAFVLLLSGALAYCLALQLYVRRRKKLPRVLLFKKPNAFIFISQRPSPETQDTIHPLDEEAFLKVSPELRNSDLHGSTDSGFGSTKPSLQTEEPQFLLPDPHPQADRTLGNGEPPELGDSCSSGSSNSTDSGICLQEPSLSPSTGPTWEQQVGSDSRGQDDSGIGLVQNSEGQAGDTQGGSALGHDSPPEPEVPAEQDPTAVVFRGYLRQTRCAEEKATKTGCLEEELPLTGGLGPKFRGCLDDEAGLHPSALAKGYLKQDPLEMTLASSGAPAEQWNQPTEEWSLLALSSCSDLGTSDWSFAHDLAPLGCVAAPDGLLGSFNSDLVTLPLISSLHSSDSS
The experiment in a line: flow cytometry on cynomolgus macaque PBMC, lymphocyte gate; competitor: recombinant human IL-10Rα [C]. In general terms: Flow cytometry measures light scatter and fluorescence of single cells or particles in a stream.

Another experiment deals with T3, Ac-SIFSHFREYE-NH2 (human).
T3 peptide: Ac-SIFSHFREYE-NH2
Briefly: dot blot on PVDF or nitrocellulose membrane. How it is done: (§1) Methods to detect antibody binding to peptides derived from the human IL-10Rα sequence: Multiple methods were employed to detect binding of anti-human IL-10Rα antibodies to peptides derived from the extracellular domain of human IL-10Rα that have been reported by Reineke, et al. (Reineke, et al., Protein Sci 7:951 (1998)) to be included in the IL-10 binding site of the receptor. The following amide synthesized peptides were tested: Ac-[…]-NH2, Ac-[…]-NH2, Ac-[…]-NH2, Ac-[…]-NH2, Ac-[…]-NH2 (SEQ ID NO. 81-85). In addition, the following biotinylated peptides were tested: Biotin-[…]-NH2, Biotin-[…]-NH2 (SEQ ID NO. 86-87). The amide peptides were synthesized by A&A Labs, LLC (San Diego, Calif.) and the biotinylated peptides were synthesized by GenScript (Piscataway, N.J.) both at >95% purity and reconstituted at 20 mg/ml in DMSO. In one assay design peptides were spotted at 5 μg/spot in PBS onto PVDF membranes or nitrocellulose membranes that had been prepared according to the manufacturer's instructions. The membranes were incubated with anti-IL-10Rα antibodies using standard Western blotting methods (e.g. Towbin, et al., Proc Natl Acad Sci 76:4350 (1979)). Native human IL-10Ra:hFc and heat denatured human IL-10Ra:hFc were also spotted at 1 μg/spot on the membranes as controls. Negative controls included an irrelevant peptide and isotype controls. […] None of the antibodies bound to the spotted denatured protein or to any of the peptides derived from the human IL-10Ra extracellular domain or the irrelevant peptide.

The next experiment concerns the target T4, Ac-YHSNGYRARVRA-NH2 (human).
T4 peptide: Ac-YHSNGYRARVRA-NH2
The experiment in a line: dot blot on PVDF or nitrocellulose membrane. Here is the method: as §1

In another experiment the target is T5, Ac-TVTNTRFSVD-NH2 (human).
T5 peptide: Ac-TVTNTRFSVD-NH2
Briefly: dot blot on PVDF or nitrocellulose membrane. How it is done:
as §1

For the next experiment, the target named is T6, Ac-GNFTFTHKKV-NH2 (human).
T6 peptide: Ac-GNFTFTHKKV-NH2
The experiment in a line: dot blot on PVDF or nitrocellulose membrane. Here is the method:
as §1

The target in another experiment is T7, Ac-SVASRSNKGM-NH2 (human).
T7 peptide: Ac-SVASRSNKGM-NH2
Briefly: dot blot on PVDF or nitrocellulose membrane. How it is done:
as §1

B1: 136C5 (antibody, V domains shown)
VH: EVQLVESGGGLVQPGGSLRLSCAASGFTFSSYSMNWVRQAPGKGLEWVSYISTGSSTIYYADSVKGRFTISRDNAKNSLYLQMNSLRDEDTAVYYCARENYYGSGSYEDYFDYWGQGTLVTVSS
VL: EIVLTQSPATLSLSPGERATLSCRASQSVSSYLAWYQQKPGQAPRLLIYDASNRATGIPARFSGSGSGTDFTLTISSLEPEDFAVYYCQQRSNWPIFTFGPGTKVDIK
notes: Hybridoma antibody, human IgG1, kappa light chain; also called human anti-human IL-10Rα monoclonal antibody 136C5; hybridoma deposit PTA-9131
With B1, in experiment [1], the “fold higher relative binding affinity than 37607” value was ~3 fold. In addition, the binding result in experiment [2] is reported as “binds”; with Ac-SIFSHFREYE-NH2, “no binding (tested: 5 µg/spot)”; with Ac-YHSNGYRARVRA-NH2, “no binding (tested: 5 µg/spot)”; in the experiment with Ac-TVTNTRFSVD-NH2, “no binding (tested: 5 µg/spot)”; with Ac-GNFTFTHKKV-NH2, “no binding (tested: 5 µg/spot)”; with Ac-SVASRSNKGM-NH2 it was “no binding (tested: 5 µg/spot)”.

B2: 136C8 (antibody, V domains shown)
VH: EVQLVESGGGLVQPGGSLRLSCAASGFTFSSYSMNWVRQAPGKGLEWVSYISTRSSTIYYADSVKGRFTISRDNAKNSLYLQMNSLRDEDTAVYYCARENYYGSGSYEDYFDYWGQGTLVTVSS
VL: EIVLTQSPATLSLSPGERATLSCRASQSVSSYLAWYQQKPGQAPRLLIYDASNRATGIPARFSGSGSGTDFTLTISSLEPEDFAVYYCQQRSNWPIFTFGPGTKVDIK
notes: Hybridoma antibody, human IgG2, kappa light chain; also called human anti-human IL-10Rα monoclonal antibody 136C8; hybridoma deposit PTA-9132
In the case of B2, in experiment [1], the “fold higher relative binding affinity than 37607” value is ~3 fold. Also, the binding result in experiment [2] is “binds”; with Ac-SIFSHFREYE-NH2 it was “no binding (tested: 5 µg/spot)”; with Ac-YHSNGYRARVRA-NH2, “no binding (tested: 5 µg/spot)”; with Ac-TVTNTRFSVD-NH2, “no binding (tested: 5 µg/spot)”; with Ac-GNFTFTHKKV-NH2, “no binding (tested: 5 µg/spot)”; with Ac-SVASRSNKGM-NH2, “no binding (tested: 5 µg/spot)”.
